B1: 3-6A4 (recombinant, expressed in CHO, Example 6) (antibody, human IgG1, kappa, V domains shown)
VH: QIQLVQSGPELKKPGETVKISCKASGYTFTTNGINWVKQAAGKGLKWMGWINTNTGEPTNAEELKGRFAFSLETSASTAYLQINNLKNEDAAIYFCAREGAFGLDYWGQGTSVTVSS
VL: SIVMTQSPKFLLVSAGDRVIITCKASQSVSNDVVWYQQKPGQSPKLLIYYGSHRNTGVPTRFTGSGYGTDFTFTISTVQAEDLAVYFCQQDFFSPWTFGGGTKLEIKR
B2: 5-20E11-5F2 (recombinant, expressed in CHO, Example 6) (antibody, human IgG1, kappa, V domains shown)
VH: QVQLQQSGAELVRPGTSAKISCKASDYTFTNYWLGWLKQRPGHGLEWIGHIYPGGGYTNYNEKFKGKATLTADTSSSTAYMQLSSLTSEDSAVYFCARVRSGNDALDFWGQGTSVTVSS
VL: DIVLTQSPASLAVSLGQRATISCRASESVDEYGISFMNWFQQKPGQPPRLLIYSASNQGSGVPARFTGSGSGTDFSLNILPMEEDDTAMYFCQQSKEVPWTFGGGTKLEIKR

How the values were obtained:
[1] = biological target: T1, recombinant OSM (Genscript-z03132) (UniProt P13725 26-221, limits assumed); experiment: ELISA, cytokine coated
T1 sequence (looked up): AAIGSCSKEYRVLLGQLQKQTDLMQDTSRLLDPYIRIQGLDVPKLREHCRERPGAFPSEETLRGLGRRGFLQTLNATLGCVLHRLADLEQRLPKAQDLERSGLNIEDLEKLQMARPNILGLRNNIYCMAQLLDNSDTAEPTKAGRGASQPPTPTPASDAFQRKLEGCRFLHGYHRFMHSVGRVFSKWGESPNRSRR

[2] = biological target: T2, recombinant CLC (R&D systems, 962-CL-050) (UniProt Q9UBD9 28-225); experiment: ELISA, cytokine coated
T2 sequence (looked up): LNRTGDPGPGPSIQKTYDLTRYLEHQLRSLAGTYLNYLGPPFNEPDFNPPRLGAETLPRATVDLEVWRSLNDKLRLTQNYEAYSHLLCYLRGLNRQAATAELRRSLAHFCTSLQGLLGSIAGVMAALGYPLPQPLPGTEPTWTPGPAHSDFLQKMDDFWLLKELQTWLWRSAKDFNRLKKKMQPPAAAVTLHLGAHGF

[3] = biological target: T3, recombinant LIF (Peprotech, 300-05) (UniProt P15018 23-202); experiment: ELISA, cytokine coated
[4] = biological target: T4, recombinant IL-31 (Peprotech, 200-31) (UniProt Q6EBC2 24-164); experiment: ELISA, cytokine coated
T4 sequence (looked up): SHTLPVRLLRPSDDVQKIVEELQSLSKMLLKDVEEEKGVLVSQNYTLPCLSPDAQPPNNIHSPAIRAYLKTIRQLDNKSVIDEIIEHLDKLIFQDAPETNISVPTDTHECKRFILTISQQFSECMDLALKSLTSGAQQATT

[5] = biological target: T5, recombinant CNTF (R&D systems, 257-NT-010) (UniProt P26441 2-200); experiment: ELISA, cytokine coated
T5 sequence (looked up): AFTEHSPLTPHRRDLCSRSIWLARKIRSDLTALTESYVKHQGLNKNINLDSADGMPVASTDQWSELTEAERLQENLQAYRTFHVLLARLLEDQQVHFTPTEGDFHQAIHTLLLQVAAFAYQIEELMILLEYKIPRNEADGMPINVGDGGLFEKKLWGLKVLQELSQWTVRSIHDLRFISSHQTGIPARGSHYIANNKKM

[6] = biological target: T6, recombinant CT-1 (R&D systems, 612-CD-010) (UniProt Q16619 2-201); experiment: ELISA, cytokine coated
T6 sequence (looked up): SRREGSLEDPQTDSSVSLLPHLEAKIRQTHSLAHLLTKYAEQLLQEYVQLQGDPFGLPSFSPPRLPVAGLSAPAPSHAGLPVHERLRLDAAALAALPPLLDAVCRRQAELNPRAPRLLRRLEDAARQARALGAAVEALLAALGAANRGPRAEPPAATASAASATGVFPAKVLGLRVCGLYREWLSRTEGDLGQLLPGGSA

[7] = biological target: T7, recombinant IL-6 (Sinobiological-10395-HNAE) (UniProt P05231 30-212); experiment: ELISA, cytokine coated
[8] = biological target: T8, recombinant IL-27 (R&D systems, 2526-IL-010) (UniProt Q8NEV9 29-243; Q14213 21-229); experiment: ELISA, cytokine coated
T8 construct: the bought product may be a single-chain fusion
T8 sequence (looked up) 1: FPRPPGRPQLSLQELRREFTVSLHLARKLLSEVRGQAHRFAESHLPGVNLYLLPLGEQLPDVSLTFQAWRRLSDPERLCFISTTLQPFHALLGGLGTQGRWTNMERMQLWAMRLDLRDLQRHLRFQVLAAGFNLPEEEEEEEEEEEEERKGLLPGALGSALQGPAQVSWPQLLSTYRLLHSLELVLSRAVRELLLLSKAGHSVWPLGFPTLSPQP
T8 sequence (looked up) 2: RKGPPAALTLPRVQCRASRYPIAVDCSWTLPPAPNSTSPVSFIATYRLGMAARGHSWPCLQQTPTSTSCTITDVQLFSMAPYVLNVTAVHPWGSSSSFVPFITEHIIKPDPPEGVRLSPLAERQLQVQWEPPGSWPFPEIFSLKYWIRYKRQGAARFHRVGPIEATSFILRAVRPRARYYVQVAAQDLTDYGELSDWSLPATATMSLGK

[9] = biological target: T1, recombinant OSM (Genscript-z03132); experiment: ELISA, cytokine coated; remark: listed apart in the source
[10] = biological target: T2, recombinant CLC (R&D systems, …); experiment: ELISA, cytokine coated; remark: listed apart in the source
[11] = biological target: T3, recombinant LIF (Peprotech, 300-05); experiment: ELISA, cytokine coated; remark: listed apart in the source
[12] = biological target: T4, recombinant IL-31 (Peprotech, 200-31); experiment: ELISA, cytokine coated; remark: listed apart in the source
[13] = biological target: T5, recombinant CNTF (R&D systems, …); experiment: ELISA, cytokine coated; remark: listed apart in the source
[14] = biological target: T6, recombinant CT-1 (R&D systems, …); experiment: ELISA, cytokine coated; remark: listed apart in the source
[15] = biological target: T9, recombinant IL-11 (LSBio, LS-G132887-10) (UniProt P20809 22-199); experiment: ELISA, cytokine coated
T9 sequence (looked up): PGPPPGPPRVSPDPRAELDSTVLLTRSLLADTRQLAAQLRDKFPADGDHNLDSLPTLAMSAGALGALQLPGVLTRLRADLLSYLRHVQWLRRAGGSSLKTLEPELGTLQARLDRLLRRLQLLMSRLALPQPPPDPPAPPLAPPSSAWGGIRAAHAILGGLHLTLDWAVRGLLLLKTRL

[16] = biological target: T7, recombinant IL-6 …; experiment: ELISA, cytokine coated; remark: listed apart in the source
[17] = biological target: T8, recombinant IL-27 (R&D systems, …); experiment: ELISA, cytokine coated; remark: listed apart in the source
[18] = biological target: T10, recombinant human protein antigen hu-IL-11-His tag (human, UniProt P20809 22-199); experiment: BLI (Octet QKe), IL-11 (His tag) on Ni-NTA sensor, antibody as analyte
T10 construct: also called IL-11-His protein; not shown: His tag
T10 sequence (looked up): T9 sequence (looked up)
Procedure: The analytes were diluted in 7 concentration gradients, the binding time was 60 s and the dissociation time was 1000 s. The buffer was 20 mM PBS, 0.15M NaCl, 0.1% BSA, 0.05% Tween 20, pH 7.4. […] In this example, Pall ForteBio (Octet QKe) instrument was used to determine the affinity of antibodies for antigens.

[19] = biological target: T11, IL-11-Fc protein (UniProt P20809 22-199, limits assumed); experiment: flow cytometry competition: IL-11-Fc plus antibody on membrane-IL-11R CHO cells
T11 construct: also called IL-11 recombinant protein with Fc tag; not shown: Fc tag
T11 sequence (looked up): T9 sequence (looked up)
From the text: The secondary antibody (Goat-anti-Fc-FITC) (Abcam, ab98529) conjugated with FITC fluorophore was used for detection.

T3 sequence (P15018 23-202 limits assumed): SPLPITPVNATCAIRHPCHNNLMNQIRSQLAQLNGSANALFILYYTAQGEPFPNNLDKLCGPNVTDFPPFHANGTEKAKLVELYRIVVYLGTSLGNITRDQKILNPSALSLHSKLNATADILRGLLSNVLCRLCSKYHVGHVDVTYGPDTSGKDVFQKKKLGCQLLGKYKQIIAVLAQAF

| Binder | binding result [1] | binding result [2] | binding result [3] | binding result [4] | binding result [5] | binding result [6] | binding result [7] | binding result [8] | OD450 nm [9] [OD450] | OD450 nm [10] [OD450] | OD450 nm [11] [OD450] | OD450 nm [12] [OD450] | OD450 nm [13] [OD450] | OD450 nm [14] [OD450] | OD450 nm [15] [OD450] | OD450 nm [16] [OD450] | OD450 nm [17] [OD450] | Kd [18] [nM] | koff [18] [s⁻¹] | kon [18] [M⁻¹ s⁻¹] | further results |
| --- | --- | --- | --- | --- | --- | --- | --- | --- | --- | --- | --- | --- | --- | --- | --- | --- | --- | --- | --- | --- | --- |
| B1 | no binding | no binding | no binding | no binding | no binding | no binding | no binding | no binding | 0.102 | 0.042 | 0.084 | 0.088 | 0.064 | 0.041 | 1.88 | 0.039 | 0.035 | 0.0393 | 4.16e-05 | 1.06e+06 | IC50 [19]: ~7 µg/mL |
| B2 | no binding | no binding | no binding | no binding | no binding | no binding | no binding | no binding | 0.045 | 0.033 | 0.037 | 0.036 | 0.036 | 0.034 | 1.93 | 0.049 | 0.048 | 0.069 | 1.21e-05 | 175000 | IC50 [19]: ~21 µg/mL |

Reference: patent publication US20250002574A1 (SUNSHINE LAKE PHARMA, published 2025)
